PMC8096149

Legend:
Assay in all cases: flow cytometry on cells
[1] = target: Donkey1.1 H31TAG scFv with AzF
[2] = target: Donkey1.1 H31TAG scFv with AzMF
[3] = target: Donkey1.1 H31TAG scFv with OPG
[4] = target: Donkey1.1 H54TAG scFv with AzF
[5] = target: Donkey1.1 H54TAG scFv with OPG
[6] = target: Donkey1.1 L93TAG scFv with AzF
[7] = target: Donkey1.1 L93TAG scFv with OPG
[8] = target: Bovine2.2 H31TAG scFv with AzF
[9] = target: Bovine2.2 H31TAG scFv with OPG
[10] = target: Bovine2.2 H54TAG scFv with AzF
[11] = target: Bovine2.2 H54TAG scFv with OPG
[12] = target: Bovine2.2 L93TAG scFv with AzF
[13] = target: Bovine2.2 L93TAG scFv with OPG

Substance | Kd [1] | antigen binding level relative to wild-type at 200 nM IgG (% of wild-type) [1] | antigen binding level relative to wild-type at 200 nM IgG (% of wild-type) [2] | Kd [3] | antigen binding level relative to wild-type at 200 nM IgG (% of wild-type) [3] | Kd [4] | Kd [5] | Kd [6] | Kd [7] | Kd [8] | Kd [9] | Kd [10] | Kd [11] | Kd [12] | Kd [13]
biotinylated donkey IgG (natural protein) | 0.561 µM | < 10 | < 10 | 0.365 µM | < 10 | 0.213 µM | 0.0558 µM | 0.125 µM | 0.045 µM |  |  |  |  |  | 
biotinylated bovine IgG (natural protein) |  |  |  |  |  |  |  |  |  | 0.546 µM | 0.601 µM | 0.38 µM | 0.183 µM | 0.332 µM | 0.179 µM
